{"source": "paper PMC11323494", "about": "“A network of acetyl phosphate-dependent modification modulates c-di-AMP homeostasis in Actinobacteria” (mBio, 2024)", "tested_on": "DasR K78Q (Saccharopolyspora erythraea NRRL2338)", "assay": "BLI", "conditions": "BLI: 10 mM HEPES pH 8.0, 2 mM MgCl2, 0.1 mM EDTA, 200 mM KCl (running buffer + 10 µg/mL BSA, 0.02% Tween-20), SA sensor, temperature not stated; EMSA: 5 nM …"}
{"substance": "disA promoter probe", "values": [{"measurement": "Kd", "value": 20, "unit": "µM"}]}
